Biological target: transgenic TCR specific for A*02:01/pp65495-503, on transduced PBMCs
Assay: cell-based or functional assay

Ag-specific CD8 T cell population after 5d culture with 0.5 ug pMHC [%] | Substance | Ag-specific CD8 T cell population after 5d culture with 0.25 ug pMHC [%]
 | A1/pp65(363-373) pMHC functionalized with MMAF (irrelevant toxin armed Streptamer) (from UniProt P61769 21-119; P06725 363-373) (peptide-MHC) | 60.7
20 to 43.7 | un-functionalized A2/pp65495-503 pMHC (Tub-tagged Streptamer) (from UniProt P61769 21-119; P06725 495-503) (peptide-MHC) | 64.5

Reference: US20210246189A1
